Laboratory results as given in patent US20100196265A1 (University of California, published 2010).

What was measured:
[1] = target: T1, HER2/neu extracellular domain (UniProt P04626 23-652, limits assumed); experiment: surface plasmon resonance (BIAcore), HER2/neu extracellular domain on the chip, ALM injected; concentrations not given
T1 construct: extracellular domain; also called ErbB2

[2] = target: T2, HER3 extracellular domain (UniProt P21860 20-643, limits assumed); experiment: surface plasmon resonance (BIAcore), HER3 extracellular domain on the chip, ALM injected; concentrations not given
T2 construct: extracellular domain; also called ErbB3
T2 sequence (P21860 20-643 limits assumed): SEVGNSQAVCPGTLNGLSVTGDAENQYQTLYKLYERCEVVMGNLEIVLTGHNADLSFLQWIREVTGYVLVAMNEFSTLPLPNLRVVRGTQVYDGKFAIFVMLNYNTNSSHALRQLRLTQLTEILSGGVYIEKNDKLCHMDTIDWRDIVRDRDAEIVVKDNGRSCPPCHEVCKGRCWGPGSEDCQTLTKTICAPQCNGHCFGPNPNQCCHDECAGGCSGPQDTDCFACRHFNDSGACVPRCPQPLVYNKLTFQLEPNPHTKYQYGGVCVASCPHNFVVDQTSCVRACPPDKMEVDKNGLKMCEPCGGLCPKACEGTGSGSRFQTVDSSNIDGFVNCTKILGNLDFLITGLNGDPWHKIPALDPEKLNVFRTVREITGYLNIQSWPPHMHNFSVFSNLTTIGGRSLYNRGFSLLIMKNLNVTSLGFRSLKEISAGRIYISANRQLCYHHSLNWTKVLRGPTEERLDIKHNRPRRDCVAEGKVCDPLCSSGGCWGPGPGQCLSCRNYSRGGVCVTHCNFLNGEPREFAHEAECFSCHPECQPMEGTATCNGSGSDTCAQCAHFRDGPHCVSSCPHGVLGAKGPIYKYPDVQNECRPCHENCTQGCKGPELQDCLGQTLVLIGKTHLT

B1: ALM (A5-ML3.9) bispecific scFv (bispecific antibody)
scFv: AMAQVQLVQSGGGLVKPGGSLRLSCAASGFSFNTYDMNWVRQAPGKGLEWVSSISSSSSYIYYADSVKGRFTISRDNAKNSLYLQMNSLRAEDTAVYYCARDGVATTPFDYWGQGTLVTVSSGGGGSGGGGSGGGGSQSVLTQPPSVSGAPGQRVTISCTGSSSNIGAGYDVHWYQQLPGTAPKLLIYGNSNRPSGVPDRFSGSKSGTSASLAITGLQAEDEADYYCQSYDSSLSALFGGGTKLTVLGNSGAGTSGSGASGEGSGSKLQVQLVQSGAEVKKPGESLKISCKGSGYSFTSYWIAWVRQMPGKGLEYMGLIYPGDSDTKYSPSFQGQVTISVDKSVSTAYLQWSSLKPSDSAVYFCARHDVGYCSSSNCAKWPEYFQHWGQGTLVTVSSGGGGSGGGGSGGGGSQSVLTQPPSVSAAPGQKVTISCSGSSSNIGNNYVSWYQQLPGTAPKLLIYDHTNRPAGVPDRFSGSKSGTSASLAISGFRSEDEADYYCASWDYTLSGWVFGGGTKLTVLGLEHHHHHH
notes: Expressed in E. coli TG1 from pUC/ALM and purified by IMAC and size exclusion; also called A5/Linker/ML3.9 bs-scFv; ALM proteins
B1: binds [1]; binds [2].
